From article doi:10.1101/2025.09.09.675230 come the findings set out here.

Assay [1] concerns the target Measles virus hemagglutinin (H) ectodomain with twin StrepII tag (HECT-TS), residues 149-617 (Measles virus strain IC323 (Ichinose-B95a)). Briefly: cryo-EM structure.
For assay [2], the target named is Measles virus hemagglutinin (H) ectodomain, untagged (HECT), residues 149-617 (Measles virus strain IC323 (Ichinose-B95a)). The assay can be described thus: cryo-EM structure.

The term stoichiometry N denotes the number of molecules, sites or subunits per partner or assembly. With “Measles virus hemagglutinin (H) ectodomain with twin StrepII tag (HECT-TS), residues 149-617 (domain or fragment)”, the stoichiometry N in assay [1] came out at 2. The substance “Measles virus hemagglutinin (H) ectodomain, untagged (HECT), residues 149-617 (domain or fragment)” yielded a stoichiometry N in assay [2] of 2.
